Assay results taken from US20150010575A1 (SAMSUNG ELECTRONICS, published 2015).

Molecular target: T1, human c-Met/Fc fusion protein (R&D Systems) (human, UniProt P08581 25-932)
T1 construct: Bought from R&D Systems; Coated on microtiter plates at 2 ug/mL; also called human c-Met/Fc protein; not shown: Fc part of the bought fusion protein; not described
Assay: ELISA, human c-Met/Fc coated at 2 ug/mL, hybridoma culture, anti-mouse IgG-HRP
Method: Human c-Met/Fc fusion protein was seeded in an amount of 50 μL (2 μg/mL)/well to microtiter plates and allowed to adhere to the surface of each well. The antibody that remained unbound was removed by washing.
The hybridoma cell culture obtained in Reference Example 1.1.2 was added in an amount of 50 μL to each well of the plates and incubated for 1 hour. The cells remaining unreacted were washed out with a sufficient amount of Tris-buffered saline and Tween 20 (TBST). Goat anti-mouse IgG-horseradish peroxidase (HRP) was added to the plates and incubated for 1 hour at room temperature. The plates were washed with a sufficient amount of TBST, followed by reacting the peroxidase with a substrate (OPD). Absorbance at 450 nm was measured on an ELISA reader.

T1 sequence (P08581 25-932 limits assumed): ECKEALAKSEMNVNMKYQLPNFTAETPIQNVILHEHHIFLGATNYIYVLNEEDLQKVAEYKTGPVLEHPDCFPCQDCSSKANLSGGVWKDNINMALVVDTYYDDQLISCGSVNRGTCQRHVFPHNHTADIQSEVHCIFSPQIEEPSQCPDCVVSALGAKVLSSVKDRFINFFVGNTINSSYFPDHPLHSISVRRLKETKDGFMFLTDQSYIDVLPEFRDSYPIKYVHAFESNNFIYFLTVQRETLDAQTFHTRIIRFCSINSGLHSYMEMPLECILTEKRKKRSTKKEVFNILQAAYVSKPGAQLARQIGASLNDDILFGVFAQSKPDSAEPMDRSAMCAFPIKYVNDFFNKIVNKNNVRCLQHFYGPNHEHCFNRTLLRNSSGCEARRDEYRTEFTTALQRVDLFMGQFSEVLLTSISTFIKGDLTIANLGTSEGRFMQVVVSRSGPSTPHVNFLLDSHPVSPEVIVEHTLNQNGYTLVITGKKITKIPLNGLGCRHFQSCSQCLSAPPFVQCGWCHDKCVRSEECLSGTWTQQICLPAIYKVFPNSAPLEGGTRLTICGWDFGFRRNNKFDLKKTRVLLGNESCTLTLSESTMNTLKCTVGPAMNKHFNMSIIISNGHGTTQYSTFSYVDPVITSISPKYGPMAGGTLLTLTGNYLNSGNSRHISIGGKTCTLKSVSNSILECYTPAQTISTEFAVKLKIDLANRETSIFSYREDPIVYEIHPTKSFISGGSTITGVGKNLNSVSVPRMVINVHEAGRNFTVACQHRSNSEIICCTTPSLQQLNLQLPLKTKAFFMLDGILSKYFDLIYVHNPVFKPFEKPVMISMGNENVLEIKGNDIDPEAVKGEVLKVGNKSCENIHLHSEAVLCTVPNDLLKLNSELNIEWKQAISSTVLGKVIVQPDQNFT

binding result: binds
B1: AbF46, a mouse antibody to c-Met (antibody, V domains shown)
VH: EVKLVESGGGLVQPGGSLRLSCATSGFTFTDYYMSWVRQPPGKALEWLGFIRNKANGYTTEYSASVKGRFTISRDNSQSILYLQMDTLRAEDSATYYCARDNWFAYWGQGTLVTVSA
VL: DILMTQSPSSLTVSAGEKVTMSCKSSQSLLASGNQNNYLAWHQQKPGRSPKMLIIWASTRVSGVPDRFIGSGSGTDFTLTINSVQAEDLAVYYCQQSYSAPLTFGAGTKLELK
notes: Mouse monoclonal antibody, tested as hybridoma culture supernatant in the selection ELISA; also called monoclonal antibody of hybridoma KCLRF-BP-00220
